According to US20250341513A1, “Bordetella T Cells Epitopes, Megapools and Uses Thereof” (LA JOLLA INSTITUTE FOR IMMUNOLOGY, priority 2022, published 2025):

System: CD4+ T cells
Assay: BP genome-wide peptide library screening by ex vivo AIM assay; epitope and antigen (ORF) reactivity and donor recognition
Type: cell-based, human
Conditions: for frequency of donor recognition: entire cohort (n=40); for magnitude, % of total response: sum of reactivity of individual epitopes per ORF/antigen across entire cohort (n=40), FIG. 3; for % of Donor response / % of Total magnitude: immunodominant antigens (ORFs); for % of Donor response: frequency of donors recognising the antigen; for % of Total magnitude: share of total CD4+ T cell response magnitude in the genome-wide screen

## filamentous hemagglutinin [FHA]
  frequency of donor recognition: 45.0 % of donors
  magnitude, % of total response: 2.12 % of total response

B1: pertactin (protein, UniProt P14283 35-910, looked up)
Pertactin autotransporter: DWNNQSIVKTGERQHGIHIQGSDPGGVRTASGTTIKVSGRQAQGILLENPAAELQFRNGSVTSSGQLSDDGIRRFLGTVTVKAGKLVADHATLANVGDTWDDDGIALYVAGEQAQASIADSTLQGAGGVQIERGANVTVQRSAIVDGGLHIGALQSLQPEDLPPSRVVLRDTNVTAVPASGAPAAVSVLGASELTLDGGHITGGRAAGVAAMQGAVVHLQRATIRRGDAPAGGAVPGGAVPGGAVPGGFGPGGFGPVLDGWYGVDVSGSSVELAQSIVEAPELGAAIRVGRGARVTVSGGSLSAPHGNVIETGGARRFAPQAAPLSITLQAGAHAQGKALLYRVLPEPVKLTLTGGADAQGDIVATELPSIPGTSIGPLDVALASQARWTGATRAVDSLSIDNATWVMTDNSNVGALRLASDGSVDFQQPAEAGRFKVLTVNTLAGSGLFRMNVFADLGLSDKLVVMQDASGQHRLWVRNSGSEPASANTLLLVQTPLGSAATFTLANKDGKVDIGTYRYRLAANGNGQWSLVGAKAPPAPKPAPQPGPQPPQPPQPQPEAPAPQPPAGRELSAAANAAVNTGGVGLASTLWYAESNALSKRLGELRLNPDAGGAWGRGFAQRQQLDNRAGRRFDQKVAGFELGADHAVAVAGGRWHLGGLAGYTRGDRGFTGDGGGHTDSVHVGGYATYIADSGFYLDATLRASRLENDFKVAGSDGYAVKGKYRTHGVGASLEAGRRFTHADGWFLEPQAELAVFRAGGGAYRAANGLRVRDEGGSSVLGRLGLEVGKRIELAGGRQVQPYIKASVLQEFDGAGTVHTNGIAHRTELRGTRAELGLGMAAALGRGHSLYASYEYSKGPKLAMPWTFHAGYRYSW
notes: aP vaccine antigen of B. pertussis
  frequency of donor recognition: 40 % of donors
  magnitude, % of total response: 1.33 % of total response

B2: Fim 3: fimbrial protein 3, aP vaccine antigen (protein, UniProt P17835 26-204, looked up)
Serotype 3 fimbrial subunit: NDGTIVITGSISDQTCVIEEPSTLNHIKVVQLPKISKNALRNDGDTAGATPFDIKLKECPQALGALKLYFEPGITTNYDTGDLIAYKQTYNASGNGNLSTVSSATKAKGVEFRLANLNGQHIRMGTDKTTQAAQTFTGKVTNGSKSYTLRYLASYVKKPKEDVDAAQITSYVGFSVVYP
  frequency of donor recognition: 12.5 % of donors
  magnitude, % of total response: 0.24 % of total response

B3: BrkA autotransporter (protein, UniProt Q45340 43-1010, looked up)
BrkA autotransporter: QAPQPPVAGAPHAQDAGQEGEFDHRDNTLIAVFDDGVGINLDDDPDELGETAPPTLKDIHISVEHKNPMSKPAIGVRVSGAGRALTLAGSTIDATEGGIPAVVRRGGTLELDGVTVAGGEGMEPMTVSDAGSRLSVRGGVLGGEAPGVGLVRAAQGGQASIIDATLQSILGPALIADGGSISVAGGSIDMDMGPGFPPPPPPLPGAPLAAHPPLDRVAAVHAGQDGKVTLREVALRAHGPQATGVYAYMPGSEITLQGGTVSVQGDDGAGVVAGAGLLDALPPGGTVRLDGTTVSTDGANTDAVLVRGDAARAEVVNTVLRTAKSLAAGVSAQHGGRVTLRQTRIETAGAGAEGISVLGFEPQSGSGPASVDMQGGSITTTGNRAAGIALTHGSARLEGVAVRAEGSGSSAAQLANGTLVVSAGSLASAQSGAISVTDTPLKLMPGALASSTVSVRLTDGATAQGGNGVFLQQHSTIPVAVALESGALARGDIVADGNKPLDAGISLSVASGAAWHGATQVLQSATLGKGGTWVVNADSRVQDMSMRGGRVEFQAPAPEASYKTLTLQTLDGNGVFVLNTNVAAGQNDQLRVTGRADGQHRVLVRNAGGEADSRGARLGLVHTQGQGNATFRLANVGKAVDLGTWRYSLAEDPKTHVWSLQRAGQALSGAANAAVNAADLSSIALAESNALDKRLGELRLRADAGGPWARTFSERQQISNRHARAYDQTVSGLEIGLDRGWSASGGRWYAGGLLGYTYADRTYPGDGGGKVKGLHVGGYAAYVGDGGYYLDTVLRLGRYDQQYNIAGTDGGRVTADYRTSGAAWSLEGGRRFELPNDWFAEPQAEVMLWRTSGKRYRASNGLRVKVDANTATLGRLGLRFGRRIALAGGNIVQPYARLGWTQEFKSTGDVRTNGIGHAGAGRHGRVELGAGVDAALGKGHNLYASYEYAAGDRINIPWSFHAGYRYSF
  % of Donor response: 20%
  % of Total magnitude: 0.44%

B4: S-adenosylmethionine--tRNA ribosyltransferase-isomerase QueA (protein, UniProt Q7VZ81 1-347, looked up)
S-adenosylmethionine:tRNA …: MPTPLTLADFDYHLPPELIAQSPAAERGGSRLLHLDAASRLHDRRFPDLAGLLRPHDLLVFNDTRVIKARLTGQKATGGKVEVLVERITAPDRALAHVRASKSPGPGMRLRLAEAFEAEVLGREGELFDLRFPAPVLDLLDAHGATPLPPYITHAADATDERRYQTVYAREPGAVAAPTAGLHFDQPMLEQLAAQGVQRAFVTLHVGAGTFQPVRVQNLAEHIMHAEWYTVPEATVAAIARARAHGGRIVAVGTTSVRALESAAAQAQDGPLAAAQGDTRLFITPGYRYRAVDALLTNFHLPQSTLLMLVSALAGVEPIRRAYAHAVAERYRFFSYGDAMFIETPAP
  % of Donor response: 17.5%
  % of Total magnitude: 0.27%

B5: Virulence sensor protein BvgS (protein, UniProt P16575 33-1238, looked up)
Virulence sensor protein BvgS: SQELTLVGKAAVPDVEVALDGDDWRWLARKRVLTLGVYAPDIPPFDVTYGERYEGLTADYMAIIAHNLGMQAKVLRYPTREQALSALESGQIDLIGTVNGTDGRQQSLRLSVPYAADHPVIVMPIGARHVPASNLAGQRLAVDINYLPKETLARAYPQATLHYFPSSEQALAAVAYGQADVFIGDALTTSHLVSQSYFNDVRVVAPAHIATGGESFGVRADNTRLLRVVNAVLEAIPPSEHRSLIYRWGLGSSISLDFAHPAYSAREQQWMADHPVVKVAVLNLFAPFTLFRTDEQFGGISAAVLQLLQLRTGLDFEIIGVDTVEELIAKLRSGEADMAGALFVNSARESFLSFSRPYVRNGMVIVTRQDPDAPVDADHLDGRTVALVRNSAAIPLLQRRYPQAKVVTADNPSEAMLMVANGQADAVVQTQISASYYVNRYFAGKLRIASALDLPPAEIALATTRGQTELMSILNKALYSISNDELASIISRWRGSDGDPRTWYAYRNEIYLLIGLGLLSALLFLSWIVYLRRQIRQRKRAERALNDQLEFMRVLIDGTPNPIYVRDKEGRMLLCNDAYLDTFGVTADAVLGKTIPEANVVGDPALAREMHEFLLTRVAAEREPRFEDRDVTLHGRTRHVYQWTIPYGDSLGELKGIIGGWIDITERAELLRKLHDAKESADAANRAKTTFLATMSHEIRTPMNAIIGMLELALLRPTDQEPDRQSIQVAYDSARSLLELIGDILDIAKIEAGKFDLAPVRTALRVLPEGAIRVFDGLARQKGIELVLKTDIVGVDDVLIDPLRMKQVLSNLVGNAIKFTTEGQVVLAVTARPDGDAAHVQFSVSDTGCGISEADQRQLFKPFSQVGGSAEAGPAPGTGLGLSISRRLVELMGGTLVMRSAPGVGTTVSVDLRLTMVEKSVQAAPPAAATAATPSKPQVSLRVLVVDDHKPNLMLLRQQLDYLGQRVIAADSGEAALALWREHAFDVVITDCNMPGISGYELARRIRAAEAAPGYGRTRCILFGFTASAQMDEAQRCRAAGMDDCLFKPIGVDALRQRLNEAVARAALPTPPSPQAAAPATDDATPTAFSAESILALTQNDEALIRQLLEEVIRTNRADVDQLQKLHQQADWPKVSDMAHRLAGGARVVDAKAMIDTVLALEKKAQGQAGPSPEIDGLVRTLAAQSAALETQLRAWLEQRPHQDQP
  % of Donor response: 15%
  % of Total magnitude: 0.76%

B6: Membrane protein insertase YidC (protein, UniProt P65622 1-563, looked up)
Membrane protein insertase …: MDIRRTVLWMIFSFSLLLLWNNWQIHNGKPSLFGGPAPEAAATQQPKADANGTAASSTASIPSSPAAAPAAASVPGAAAPAAAKSEQVVITTDVLRLTFDSNGAQLIRAELLKYPSSSQSDKPTVLMDRSADLVYVAQTGVVGAPQGESFPTHQTPFHLVSSERSLTGDTLDVVFEAESGGLKVTKTYTLHRGRYDVDVRHAMANTGGAPLNPALYLQLERDGTDPAGTSSFYHTFTGVAVYSEQDKFQKVTFSDIEKKKGTYIKQADNGWIGIVQHYFATAWIPAQGKQRTNELLQVQQNLYAARTIEAVGTIAPGSSANVDAHLWVGPQDQKAMAAVAPGLELVVDYGWLTIIAKPLFTLMTWLHGLLGNWGWTIVALTVIIKAVFFPLAAASYRSMARMKQVAPRLQALKEKYGDDRQKLNQAMMEMYRTEKINPLGGCLPMVVQIPVFIALYWVLLASVEMRGAPWILWVHDLSVRDPFFILPAIMMATMFLQIKLNPTPPDPVQAKVMMIMPLVFGGMMFFFPAGLVLYWCVNNTLSIAQQWTITRNLERQAAAAANR
  % of Donor response: 17.5%
  % of Total magnitude: 1.35%

B7: Fim 2: fimbrial protein 2, aP vaccine antigen (protein, UniProt P05788 27-207, looked up)
Serotype 2 fimbrial subunit: DDGTIVITGTITDTTCVIEDPSGPNHTKVVQLPKISKNALKANGDQAGRTPFIIKLKDCPSSLGNGVKAYFEPGPTTDYSTGDLRAYKMVYATNPQTQLSNITAATEAQGVQVRISNLNDSKITMGANEATQQAAGFDPEVQTGGTSRTVTMRYLASYVKKNGDVEASAITTYVGFSVVYP
  frequency of donor recognition: 5 % of donors
  magnitude, % of total response: 0.09 % of total response
